T1: GIPR G144S (Homo sapiens, UniProt P48546, G144S)
T1 construct: host or cells: HEK293
T1 sequence (P48546 22-466 G144S): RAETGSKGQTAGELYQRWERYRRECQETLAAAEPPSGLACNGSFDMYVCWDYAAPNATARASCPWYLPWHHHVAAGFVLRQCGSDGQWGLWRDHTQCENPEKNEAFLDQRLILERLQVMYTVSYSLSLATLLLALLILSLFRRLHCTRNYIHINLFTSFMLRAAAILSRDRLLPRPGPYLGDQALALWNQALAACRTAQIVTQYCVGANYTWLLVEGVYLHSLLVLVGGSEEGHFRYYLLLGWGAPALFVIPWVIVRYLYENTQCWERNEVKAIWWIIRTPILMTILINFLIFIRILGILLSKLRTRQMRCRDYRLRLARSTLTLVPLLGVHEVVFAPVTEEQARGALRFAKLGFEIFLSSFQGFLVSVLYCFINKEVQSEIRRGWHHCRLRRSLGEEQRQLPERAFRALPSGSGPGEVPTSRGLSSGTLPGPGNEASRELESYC

T2: GIPR R164Q (Homo sapiens, UniProt P48546, R164Q)
T2 construct: host or cells: HEK293
T2 sequence (P48546 22-466 R164Q): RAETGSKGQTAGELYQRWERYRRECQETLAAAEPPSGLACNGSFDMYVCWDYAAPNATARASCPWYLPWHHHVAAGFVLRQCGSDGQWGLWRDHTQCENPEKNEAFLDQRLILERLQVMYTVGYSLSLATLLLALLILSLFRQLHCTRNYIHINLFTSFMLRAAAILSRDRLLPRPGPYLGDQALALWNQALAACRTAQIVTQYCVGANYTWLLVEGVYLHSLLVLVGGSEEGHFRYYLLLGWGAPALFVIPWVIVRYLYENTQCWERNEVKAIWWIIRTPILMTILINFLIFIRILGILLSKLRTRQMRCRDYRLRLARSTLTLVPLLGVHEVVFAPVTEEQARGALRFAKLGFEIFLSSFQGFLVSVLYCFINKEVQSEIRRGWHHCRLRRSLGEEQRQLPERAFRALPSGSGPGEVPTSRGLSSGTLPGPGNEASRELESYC

T3: GIPR A150T (Homo sapiens, UniProt P48546, A150T)
T3 construct: host or cells: HEK293
T3 sequence (P48546 22-466 A150T): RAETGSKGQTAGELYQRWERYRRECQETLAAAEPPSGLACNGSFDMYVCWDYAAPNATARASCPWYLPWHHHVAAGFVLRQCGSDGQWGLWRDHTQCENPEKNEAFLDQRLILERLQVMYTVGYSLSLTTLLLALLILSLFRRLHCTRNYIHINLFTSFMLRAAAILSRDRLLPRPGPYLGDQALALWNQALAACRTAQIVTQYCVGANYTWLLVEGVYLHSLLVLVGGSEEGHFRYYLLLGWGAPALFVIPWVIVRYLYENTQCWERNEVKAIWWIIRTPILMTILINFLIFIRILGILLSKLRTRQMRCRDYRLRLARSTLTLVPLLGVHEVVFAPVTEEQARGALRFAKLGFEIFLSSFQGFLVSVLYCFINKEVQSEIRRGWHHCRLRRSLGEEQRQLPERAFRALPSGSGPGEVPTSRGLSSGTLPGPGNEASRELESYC

T4: GIPR H166Y (Homo sapiens, UniProt P48546, H166Y)
T4 construct: host or cells: HEK293
T4 sequence (P48546 22-466 H166Y): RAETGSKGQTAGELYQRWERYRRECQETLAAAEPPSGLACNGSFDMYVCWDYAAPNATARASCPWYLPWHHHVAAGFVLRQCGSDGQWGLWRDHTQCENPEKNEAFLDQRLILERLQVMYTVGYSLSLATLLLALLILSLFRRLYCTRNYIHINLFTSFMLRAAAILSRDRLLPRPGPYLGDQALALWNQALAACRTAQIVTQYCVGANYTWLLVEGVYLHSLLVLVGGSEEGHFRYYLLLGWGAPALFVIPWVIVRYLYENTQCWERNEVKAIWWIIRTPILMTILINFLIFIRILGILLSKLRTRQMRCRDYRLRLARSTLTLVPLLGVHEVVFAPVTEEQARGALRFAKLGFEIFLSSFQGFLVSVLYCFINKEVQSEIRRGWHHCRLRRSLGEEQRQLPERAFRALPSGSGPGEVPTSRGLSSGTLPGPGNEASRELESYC

T5: GIPR R164W (Homo sapiens, UniProt P48546, R164W)
T5 construct: host or cells: HEK293
T5 sequence (P48546 22-466 R164W): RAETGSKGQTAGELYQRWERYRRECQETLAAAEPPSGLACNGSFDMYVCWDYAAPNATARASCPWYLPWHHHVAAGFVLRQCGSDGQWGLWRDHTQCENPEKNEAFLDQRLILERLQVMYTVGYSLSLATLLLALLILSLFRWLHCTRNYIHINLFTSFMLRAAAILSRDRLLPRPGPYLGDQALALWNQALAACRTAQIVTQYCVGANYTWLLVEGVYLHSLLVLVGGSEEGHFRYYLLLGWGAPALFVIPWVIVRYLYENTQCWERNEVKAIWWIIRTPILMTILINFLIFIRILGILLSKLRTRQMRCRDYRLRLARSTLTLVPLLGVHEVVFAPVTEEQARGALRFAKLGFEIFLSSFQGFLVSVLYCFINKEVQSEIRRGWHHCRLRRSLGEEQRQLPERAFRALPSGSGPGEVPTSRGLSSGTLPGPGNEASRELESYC


Experiments:
GIPR variants (groups) [1] = assay: β-arrestin 2 recruitment (BRET); settings: for In vitro groups (β-arrestin): arr part of the in vitro group; for Beta, Barr: in vitro β-arrestin recruitment per GIPR variant;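 for all read-outs here: BRET readout of β-arrestin 2 recruitment in transiently transfected HEK293 cells expressing WT GIPR or a GIPR variant plus GPCR kinase 2, Rluc8 donor and citrine acceptor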
Procedure: Both cell lines were cultured at 5% CO2 at 37 °C in Roswell Park Memorial Institute GlutaMAX-I supplemented with 10% fetal bovine serum, 180 units ml^−1 penicillin, and 45 g ml^−1 streptomycin. […] The polyethyleneimine (PEI) transfection method was used for the β-arrestin 2 recruitment assays[50], endosomal signalling and basal receptor localization assays, while the lipofectamine transfection method was used for the internalization assay.
Measurement of β-arrestin 2 recruitment was performed with a BRET assay. Two days before the assay, the HEK293 cells were transiently transfected with either WT GIPR or the GIPR variants together with the donor Rluc8-Arrestin-3-Sp1, the acceptor mem-linker-citrine-SH3 and the GPCR kinase 2 to facilitate β-arrestin 2 recruitment. On assay day, the cells were washed with PBS and resuspended in PBS supplemented with 5 mmol l^−1 glucose. Subsequently, 85 µl of the cell suspension was transferred to a white 96-well plate and 10 µl of 50 µM coelenterazine-h was added.

GIPR G144S = target: T1, GIPR G144S; assay: cAMP accumulation; format: cell-based
Procedure: (§1) HEK293 (CRL-1573, American Type Culture Collection) and β-arrestin 1/2 knockout cells, generated from HEK293A[48], were used for cAMP measurement, homologues competition binding and β-arrestin 2 recruitment. […] Both cell lines were cultured at 5% CO2 at 37 °C in Roswell Park Memorial Institute GlutaMAX-I supplemented with 10% fetal bovine serum, 180 units ml^−1 penicillin, and 45 g ml^−1 streptomycin. For the cAMP and binding experiments, cells were transfected with the calcium phosphate precipitation method[49].
(§2) cAMP production was measured with the DiscoverX Hithunter cAMP assay according to the manufacturer’s protocol (DiscoverX). […] On the day of the assay, the cells were washed twice with HEPES-buffered saline (HBS) and incubated with HBS and 1 mM 3-isobutyl-1-methylxanthine for 30 min at 37 °C. […] After the incubation, the assay medium was removed from the plate and the cells were washed with 30 µl PBS and treated with 40 µl enzyme donor–lysis buffer–chemiluminescent reagents and 10 µl cAMP antibodies for 60 min before 40 µl enzyme acceptor solution added. After a 3-h incubation on a shaking table in the dark, the cAMP accumulation was measured based on luminescence with a Perkin Elmer EnVision 2104 Multilabel Microplate Reader. […]

GIPR variants (groups) [2] = assay: cAMP accumulation; format: cell-based, human; settings: for In vitro groups (cAMP): cAMP part of the in vitro group; for percentage_camp: cAMP production compared with WT; for Beta, cAMP: in vitro cAMP production per GIPR variant
GIPR R164Q = target: T2, GIPR R164Q; assay: cAMP accumulation; format: cell-based
Procedure: as §1, §2

GIPR A150T = target: T3, GIPR A150T; assay: cAMP accumulation; format: cell-based
Procedure: as §1, §2

GIPR H166Y = target: T4, GIPR H166Y; assay: cAMP accumulation; format: cell-based
Procedure: as §1, §2

GIPR R164W = target: T5, GIPR R164W; assay: cAMP accumulation; format: cell-based
Procedure: as §1, §2

Molecule	Efficacy at 100pmol (cAMP) (GIPR G144S)	Efficacy at 100pmol (cAMP) (GIPR R164Q)	Efficacy at 100pmol (cAMP) (GIPR A150T)	Efficacy at 100pmol (cAMP) (GIPR H166Y)	Efficacy at 100pmol (cAMP) (GIPR R164W)	In vitro groups (β-arrestin) (GIPR variants (groups) [1])	Beta, Barr (GIPR variants (groups) [1])	In vitro groups (cAMP) (GIPR variants (groups) [2])	percentage_camp (GIPR variants (groups) [2]) [% cAMP]	Beta, cAMP (GIPR variants (groups) [2])
G144S (protein) RAETGSKGQTAGELYQRWERYRRECQETLAAAEPPSGLACNGSFDMYVCWDYAAPNATARASCPWYLPWHHHVAAGFVLRQCGSDGQWGLWRDHTQCENPEKNEAFLDQRLILERLQVMYTVSYSLSLATLLLALLILSLFRRLHCTRNYIHINLFTSFMLRAAAILSRDRLLPRPGPYLGDQALALWNQALAACRTAQIVTQYCVGANYTWLLVEGVYLHSLLVLVGGSEEGHFRYYLLLGWGAPALFVIPWVIVRYLYENTQCWERNEVKAIWWIIRTPILMTILINFLIFIRILGILLSKLRTRQMRCRDYRLRLARSTLTLVPLLGVHEVVFAPVTEEQARGALRFAKLGFEIFLSSFQGFLVSVLYCFINKEVQSEIRRGWHHCRLRRSLGEEQRQLPERAFRALPSGSGPGEVPTSRGLSSGTLPGPGNEASRELESYC	0.204	–	–	–	–	LoF_arr	0	LoF_camp	<50	0.204
R164Q (protein) RAETGSKGQTAGELYQRWERYRRECQETLAAAEPPSGLACNGSFDMYVCWDYAAPNATARASCPWYLPWHHHVAAGFVLRQCGSDGQWGLWRDHTQCENPEKNEAFLDQRLILERLQVMYTVGYSLSLATLLLALLILSLFRQLHCTRNYIHINLFTSFMLRAAAILSRDRLLPRPGPYLGDQALALWNQALAACRTAQIVTQYCVGANYTWLLVEGVYLHSLLVLVGGSEEGHFRYYLLLGWGAPALFVIPWVIVRYLYENTQCWERNEVKAIWWIIRTPILMTILINFLIFIRILGILLSKLRTRQMRCRDYRLRLARSTLTLVPLLGVHEVVFAPVTEEQARGALRFAKLGFEIFLSSFQGFLVSVLYCFINKEVQSEIRRGWHHCRLRRSLGEEQRQLPERAFRALPSGSGPGEVPTSRGLSSGTLPGPGNEASRELESYC	–	1.15	–	–	–	LoF_arr	0.3053	WT-like_camp	>50	1.15
A150T (protein) RAETGSKGQTAGELYQRWERYRRECQETLAAAEPPSGLACNGSFDMYVCWDYAAPNATARASCPWYLPWHHHVAAGFVLRQCGSDGQWGLWRDHTQCENPEKNEAFLDQRLILERLQVMYTVGYSLSLTTLLLALLILSLFRRLHCTRNYIHINLFTSFMLRAAAILSRDRLLPRPGPYLGDQALALWNQALAACRTAQIVTQYCVGANYTWLLVEGVYLHSLLVLVGGSEEGHFRYYLLLGWGAPALFVIPWVIVRYLYENTQCWERNEVKAIWWIIRTPILMTILINFLIFIRILGILLSKLRTRQMRCRDYRLRLARSTLTLVPLLGVHEVVFAPVTEEQARGALRFAKLGFEIFLSSFQGFLVSVLYCFINKEVQSEIRRGWHHCRLRRSLGEEQRQLPERAFRALPSGSGPGEVPTSRGLSSGTLPGPGNEASRELESYC	–	–	0.1631	–	–	WT-like_arr	0.8173	LoF_camp	<50	0.1631

More lines, main results first:

Efficacy at 100pmol (cAMP) (GIPR G144S)	Efficacy at 100pmol (cAMP) (GIPR R164Q)	Efficacy at 100pmol (cAMP) (GIPR A150T)	Efficacy at 100pmol (cAMP) (GIPR H166Y)	Efficacy at 100pmol (cAMP) (GIPR R164W)	Molecule	In vitro groups (β-arrestin) (GIPR variants (groups) [1])	Beta, Barr (GIPR variants (groups) [1])	In vitro groups (cAMP) (GIPR variants (groups) [2])	percentage_camp (GIPR variants (groups) [2]) [% cAMP]	Beta, cAMP (GIPR variants (groups) [2])
–	–	–	0.9566	–	H166Y (protein) RAETGSKGQTAGELYQRWERYRRECQETLAAAEPPSGLACNGSFDMYVCWDYAAPNATARASCPWYLPWHHHVAAGFVLRQCGSDGQWGLWRDHTQCENPEKNEAFLDQRLILERLQVMYTVGYSLSLATLLLALLILSLFRRLYCTRNYIHINLFTSFMLRAAAILSRDRLLPRPGPYLGDQALALWNQALAACRTAQIVTQYCVGANYTWLLVEGVYLHSLLVLVGGSEEGHFRYYLLLGWGAPALFVIPWVIVRYLYENTQCWERNEVKAIWWIIRTPILMTILINFLIFIRILGILLSKLRTRQMRCRDYRLRLARSTLTLVPLLGVHEVVFAPVTEEQARGALRFAKLGFEIFLSSFQGFLVSVLYCFINKEVQSEIRRGWHHCRLRRSLGEEQRQLPERAFRALPSGSGPGEVPTSRGLSSGTLPGPGNEASRELESYC	LoF_arr	0.3616	WT-like_camp	>50	0.9566
–	–	–	–	0.003189	R164W (protein) RAETGSKGQTAGELYQRWERYRRECQETLAAAEPPSGLACNGSFDMYVCWDYAAPNATARASCPWYLPWHHHVAAGFVLRQCGSDGQWGLWRDHTQCENPEKNEAFLDQRLILERLQVMYTVGYSLSLATLLLALLILSLFRWLHCTRNYIHINLFTSFMLRAAAILSRDRLLPRPGPYLGDQALALWNQALAACRTAQIVTQYCVGANYTWLLVEGVYLHSLLVLVGGSEEGHFRYYLLLGWGAPALFVIPWVIVRYLYENTQCWERNEVKAIWWIIRTPILMTILINFLIFIRILGILLSKLRTRQMRCRDYRLRLARSTLTLVPLLGVHEVVFAPVTEEQARGALRFAKLGFEIFLSSFQGFLVSVLYCFINKEVQSEIRRGWHHCRLRRSLGEEQRQLPERAFRALPSGSGPGEVPTSRGLSSGTLPGPGNEASRELESYC	LoF_arr	0	LoF_camp	<50	0.003189

— article PMC11272584 (Nature Metabolism, 2024)
